Measurements reported in paper PMC3448977 (Biochemistry, 2012).

T1: Human BMP-9 (human, UniProt Q9UK05 320-429)
T1 sequence (looked up): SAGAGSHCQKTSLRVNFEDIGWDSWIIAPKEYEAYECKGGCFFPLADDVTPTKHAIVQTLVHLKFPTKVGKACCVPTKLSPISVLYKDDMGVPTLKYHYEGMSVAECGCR


Legend:
BMP-9 (Homo sapiens) = BMP-9 (Homo sapiens) (UniProt Q9UK05); settings: cited from earlier work
Human BMP-9 = target: T1, Human BMP-9; assay: SPR

Chain of Fc-Alk1 ECD (P37023 22-118): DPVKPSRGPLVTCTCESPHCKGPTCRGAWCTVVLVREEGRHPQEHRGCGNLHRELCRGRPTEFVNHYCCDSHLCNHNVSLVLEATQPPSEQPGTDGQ

Kd (Human BMP-9)	Molecule	Kd (BMP-9 (Homo sapiens))
	Fc-Alk1 ECD (from UniProt P37023)	0.0025 µM
5.7 µM	Alk1 extracellular domain with Arg53-Glu54-Leu55 swapped for Asp-Phe-Gln of Alk3 (Alk1-DFQ) (domain or fragment, human) GSHMDPVKPSRGPLVTCTCESPHCKGPTCRGAWCTVVLVREEGRHPQEHRGCGNLHDFQCRGRPTEFVNHYCCDSHLCNHNVSLVLEATQPPSEQPGTDGQ	
